Experimental findings from paper PMC11481497 are described below.

For the experiment, the target named is His-CaDpb3 (Dpb3 subunit of DNA polymerase epsilon of C. albicans, wild type) (C. albicans). The experiment can be described thus: ITC; 20 µM wild-type or mutant CaDpb3 in the sample cell, 100 µM CaDpb4 injected from the syringe (25 injections of 1.5 µL); 25°C; 20 mM HEPES pH 7.4, 150 mM NaCl; one-site binding model. (In general: ITC needs no label: the signal is the heat of the interaction.)

Consider “His-CaDpb4 (Dpb4 subunit of DNA polymerase epsilon of C. albicans, wild type) (from UniProt A0A1D8PG40 1-261) (natural protein)”, for which the Kd (usually the concentration at which binding is half-saturated) is 55 µM and the stoichiometry N (usually a count of units in the complex or per binding partner) amounted to 1.
